Biological target: GFP Pavarotti co-expressed with exogenous Trc (greater pool phosphorylated at S745) (D. melanogaster)
Assay: co-IP; GFP Pavarotti (WT, S745A, or WT with co-expressed Trc) over-expressed in HEK 293 FT cells; lysate in coIP buffer (50 mM Tris pH 7.5, 150 mM NaCl, 1.5% Triton X-100, 1 mM EDTA, 1 mM NaVO3); precipitated with GFP-Trap-M (single chain anti-GFP) beads, washed 3x; blot for endogenous 14-3-3

increase of the co-precipitated interaction against GFP Pavarotti without Trc: 60%
Substance: endogenous 14-3-3 ξ (HEK 293 FT cells) (from UniProt P63104 1-245) (natural protein)

From paper PMC7021487
